Test results taken from patent US20240043537A1.

Assays:
[1] = target: CD3 on T-cells (UniProt P07766); experiment: cell-based or functional assay
[2] = target: CD3 (as used for the BIACORE kinetics of Table 11) (UniProt P07766); experiment: SPR (BIACORE)
Chain of CD3 (as used for the BIACORE kinetics of Table 11) (P07766 23-126): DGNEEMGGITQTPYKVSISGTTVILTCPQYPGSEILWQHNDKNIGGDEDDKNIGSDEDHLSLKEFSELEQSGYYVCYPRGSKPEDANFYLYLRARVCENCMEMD

Chain of CD3 on T-cells (P07766 23-207): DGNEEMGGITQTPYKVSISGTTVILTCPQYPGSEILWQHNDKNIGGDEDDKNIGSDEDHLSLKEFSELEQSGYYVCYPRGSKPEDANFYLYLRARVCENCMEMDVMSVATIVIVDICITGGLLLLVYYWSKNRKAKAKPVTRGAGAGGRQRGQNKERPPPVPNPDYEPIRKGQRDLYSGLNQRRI

| Binder | EC50 of cytolysis at 18 hours (CTL assay, Pan-T-cells and MOLM-13, E:T = 5:1) [1] [ng/mL] | EC50 of cytolysis at 42 hours (CTL assay, Pan-T-cells and MOLM-13, E:T = 5:1) [1] [ng/mL] | R: ratio of 18 hour EC50 to DART-A-WT (CTL assay, Pan-T-cells and MOLM-13, E:T = 5:1) [1] | R: ratio of 42 hour EC50 to DART-A-WT (CTL assay, Pan-T-cells and MOLM-13, E:T = 5:1) [1] | Kd [2] [nM] | R (KD ratio to DART-A-WT) [2] | R (ka ratio to DART-A-WT) [2] | R (kd ratio to DART-A-WT) [2] | koff [2] [s⁻¹] | kon [2] [M⁻¹ s⁻¹] | max % CytoTox at 18 hours (CTL assay, Pan-T-cells and MOLM-13, E:T = 5:1) [1] [%] | max % CytoTox at 42 hours (CTL assay, Pan-T-cells and MOLM-13, E:T = 5:1) [1] [%] |
| --- | --- | --- | --- | --- | --- | --- | --- | --- | --- | --- | --- | --- |
| DART-A-M22 (bispecific antibody) chain 1: DFVMTQSPDSLAVSLGERVTMSCKSSQSLLNSGNQKNYLTWYQQKPGQPPKLLIYWASTRESGVPDRFSGSGSGTDFTLTISSLQAEDVAVYYCQNDYSYPYTFGQGTKLEIKGGGSGGGGEVQLVESGGGLVQPGGSLRLSCAASGFTFSTYAMNWVRQAPGKGLEWVGRIRSKYNNYATYYADSVKDRFTISRDDSKNSLYLQMNSLKTEDTAVYYCVRHKNFGNSYVSYFAYWGQGTLVTVSSGGCGGGKVAALKEKVAALKEKVAALKEKVAALKE chain 2: QAVVTQEPSLTVSPGGTVTLTCRSSTGAVTTSNYANWVQQKPGQAPRGLIGGTNKRAPWTPARFSGSLLGGKAALTITGAQAEDEADYYCALWYSNLWVFGGGTKLTVLGGGGSGGGGEVQLVQSGAELKKPGASVKVSCKASGYTFTDYYMKWVRQAPGQGLEWIGDIIPSNGATFYNQKFKGRVTITVDKSTSTAYMELSSLRSEDTAVYYCARSHLLRASWFAYWGQGTLVTVSSGGCGGGEVAALEKEVAALEKEVAALEKEVAALEK | 0.072 | 0.01 | 0.9 | 3.5 | 6.6 | 0.8 | 4.7 | 3.8 | 0.0156 | 2.37e+06 | 38.3 | 31.6 |
| DART-A-M6 (bispecific antibody) chain 1: DFVMTQSPDSLAVSLGERVTMSCKSSQSLLNSGNQKNYLTWYQQKPGQPPKLLIYWASTRESGVPDRFSGSGSGTDFTLTISSLQAEDVAVYYCQNDYSYPYTFGQGTKLEIKGGGSGGGGEVQLVESGGGLVQPGGSLRLSCAASGFTFSTYAMNWVRQAPGKGLEWVGRIRSKYNNYATYYADSVKDRFTISRDDSKNSLYLQMNSLKTEDTAVYYCVRHGNFGNSQVSWFAYWGQGTLVTVSSGGCGGGKVAALKEKVAALKEKVAALKEKVAALKE chain 2: QAVVTQEPSLTVSPGGTVTLTCRSSTGAVTTSNYANWVQQKPGQAPRGLIGGTNKRAPWTPARFSGSLLGGKAALTITGAQAEDEADYYCALWYSNLWVFGGGTKLTVLGGGGSGGGGEVQLVQSGAELKKPGASVKVSCKASGYTFTDYYMKWVRQAPGQGLEWIGDIIPSNGATFYNQKFKGRVTITVDKSTSTAYMELSSLRSEDTAVYYCARSHLLRASWFAYWGQGTLVTVSSGGCGGGEVAALEKEVAALEKEVAALEKEVAALEK | 0.162 | 0.011 | 2.1 | 3.9 | 28.8 | 3.5 | 1.4 | 4.9 | 0.0201 | 699000 | 41.9 | 29.5 |
| DART-A-M9 (bispecific antibody) chain 1: DFVMTQSPDSLAVSLGERVTMSCKSSQSLLNSGNQKNYLTWYQQKPGQPPKLLIYWASTRESGVPDRFSGSGSGTDFTLTISSLQAEDVAVYYCQNDYSYPYTFGQGTKLEIKGGGSGGGGEVQLVESGGGLVQPGGSLRLSCAASGFTFSTYAMNWVRQAPGKGLEWVGRIRSKYNNYATYYADSVKDRFTISRDDSKNSLYLQMNSLKTEDTAVYYCVRHKNFGNSYVSWFAYWGQGTLVTVSSGGCGGGKVAALKEKVAALKEKVAALKEKVAALKE chain 2: QAVVTQEPSLTVSPGGTVTLTCRSSTGAVTTSNYANWVQQKPGQAPRGLIGGTNKRAPWTPARFSGSLLGGKAALTITGAQAEDEADYYCALWYSNLWVFGGGTKLTVLGGGGSGGGGEVQLVQSGAELKKPGASVKVSCKASGYTFTDYYMKWVRQAPGQGLEWIGDIIPSNGATFYNQKFKGRVTITVDKSTSTAYMELSSLRSEDTAVYYCARSHLLRASWFAYWGQGTLVTVSSGGCGGGEVAALEKEVAALEKEVAALEKEVAALEK | 0.075 | 0.001 | 1 | 0.4 | 3.33 | 0.4 | 4.3 | 1.8 | 0.00716 | 2.15e+06 | 38.2 | 30.5 |
| DART-A-M3 (bispecific antibody) chain 1: DFVMTQSPDSLAVSLGERVTMSCKSSQSLLNSGNQKNYLTWYQQKPGQPPKLLIYWASTRESGVPDRFSGSGSGTDFTLTISSLQAEDVAVYYCQNDYSYPYTFGQGTKLEIKGGGSGGGGEVQLVESGGGLVQPGGSLRLSCAASGFTFSTYAMNWVRQAPGKGLEWVGRIRSKYNNYATYYADSVKDRFTISRDDSKNSLYLQMNSLKTEDTAVYYCVRHGNFINSYVSWFAYWGQGTLVTVSSGGCGGGKVAALKEKVAALKEKVAALKEKVAALKE chain 2: QAVVTQEPSLTVSPGGTVTLTCRSSTGAVTTSNYANWVQQKPGQAPRGLIGGTNKRAPWTPARFSGSLLGGKAALTITGAQAEDEADYYCALWYSNLWVFGGGTKLTVLGGGGSGGGGEVQLVQSGAELKKPGASVKVSCKASGYTFTDYYMKWVRQAPGQGLEWIGDIIPSNGATFYNQKFKGRVTITVDKSTSTAYMELSSLRSEDTAVYYCARSHLLRASWFAYWGQGTLVTVSSGGCGGGEVAALEKEVAALEKEVAALEKEVAALEK | 0.108 | 0.006 | 1.4 | 2.3 | 18.5 | 2.3 | 0.9 | 2 | 0.0083 | 449000 | 39.7 | 28.6 |
| DART-A-M4 (bispecific antibody) chain 1: DFVMTQSPDSLAVSLGERVTMSCKSSQSLLNSGNQKNYLTWYQQKPGQPPKLLIYWASTRESGVPDRFSGSGSGTDFTLTISSLQAEDVAVYYCQNDYSYPYTFGQGTKLEIKGGGSGGGGEVQLVESGGGLVQPGGSLRLSCAASGFTFSTYAMNWVRQAPGKGLEWVGRIRSKYNNYATYYADSVKDRFTISRDDSKNSLYLQMNSLKTEDTAVYYCVRHGNFGNSAVSWFAYWGQGTLVTVSSGGCGGGKVAALKEKVAALKEKVAALKEKVAALKE chain 2: QAVVTQEPSLTVSPGGTVTLTCRSSTGAVTTSNYANWVQQKPGQAPRGLIGGTNKRAPWTPARFSGSLLGGKAALTITGAQAEDEADYYCALWYSNLWVFGGGTKLTVLGGGGSGGGGEVQLVQSGAELKKPGASVKVSCKASGYTFTDYYMKWVRQAPGQGLEWIGDIIPSNGATFYNQKFKGRVTITVDKSTSTAYMELSSLRSEDTAVYYCARSHLLRASWFAYWGQGTLVTVSSGGCGGGEVAALEKEVAALEKEVAALEKEVAALEK | 0.176 | 0.011 | 2.2 | 3.9 | 25.7 | 3.1 | 1.6 | 5 | 0.0203 | 790000 | 41.7 | 29.8 |

Continued by falling Kd [2], values first:

| EC50 of cytolysis at 18 hours (CTL assay, Pan-T-cells and MOLM-13, E:T = 5:1) [1] [ng/mL] | EC50 of cytolysis at 42 hours (CTL assay, Pan-T-cells and MOLM-13, E:T = 5:1) [1] [ng/mL] | R: ratio of 18 hour EC50 to DART-A-WT (CTL assay, Pan-T-cells and MOLM-13, E:T = 5:1) [1] | R: ratio of 42 hour EC50 to DART-A-WT (CTL assay, Pan-T-cells and MOLM-13, E:T = 5:1) [1] | Kd [2] [nM] | R (KD ratio to DART-A-WT) [2] | R (ka ratio to DART-A-WT) [2] | R (kd ratio to DART-A-WT) [2] | koff [2] [s⁻¹] | kon [2] [M⁻¹ s⁻¹] | Binder | max % CytoTox at 18 hours (CTL assay, Pan-T-cells and MOLM-13, E:T = 5:1) [1] [%] | max % CytoTox at 42 hours (CTL assay, Pan-T-cells and MOLM-13, E:T = 5:1) [1] [%] |
| --- | --- | --- | --- | --- | --- | --- | --- | --- | --- | --- | --- | --- |
| 19.6 | 2.34 | 249 | 832 | 159 | 19 | 0.8 | 16 | 0.065 | 408000 | DART-A-M1 (bispecific antibody) chain 1: DFVMTQSPDSLAVSLGERVTMSCKSSQSLLNSGNQKNYLTWYQQKPGQPPKLLIYWASTRESGVPDRFSGSGSGTDFTLTISSLQAEDVAVYYCQNDYSYPYTFGQGTKLEIKGGGSGGGGEVQLVESGGGLVQPGGSLRLSCAASGFTFSTYAMNWVRQAPGKGLEWVGRIRSKYNNYATYYADSVKDRFTISRDDSKNSLYLQMNSLKTEDTAVYYCVRHGNFGNSYVTWFAYWGQGTLVTVSSGGCGGGKVAALKEKVAALKEKVAALKEKVAALKE chain 2: QAVVTQEPSLTVSPGGTVTLTCRSSTGAVTTSNYANWVQQKPGQAPRGLIGGTNKRAPWTPARFSGSLLGGKAALTITGAQAEDEADYYCALWYSNLWVFGGGTKLTVLGGGGSGGGGEVQLVQSGAELKKPGASVKVSCKASGYTFTDYYMKWVRQAPGQGLEWIGDIIPSNGATFYNQKFKGRVTITVDKSTSTAYMELSSLRSEDTAVYYCARSHLLRASWFAYWGQGTLVTVSSGGCGGGEVAALEKEVAALEKEVAALEKEVAALEK | 32.3 | 32.4 |
| 0.069 | 0.005 | 0.9 | 1.7 | 6.91 | 0.8 | 2.3 | 1.9 | 0.00784 | 1.13e+06 | DART-A-M8 (bispecific antibody) chain 1: DFVMTQSPDSLAVSLGERVTMSCKSSQSLLNSGNQKNYLTWYQQKPGQPPKLLIYWASTRESGVPDRFSGSGSGTDFTLTISSLQAEDVAVYYCQNDYSYPYTFGQGTKLEIKGGGSGGGGEVQLVESGGGLVQPGGSLRLSCAASGFTFSTYAMNWVRQAPGKGLEWVGRIRSKYNNYATYYADSVKDRFTISRDDSKNSLYLQMNSLKTEDTAVYYCVRHENFGNSYVSWFAYWGQGTLVTVSSGGCGGGKVAALKEKVAALKEKVAALKEKVAALKE chain 2: QAVVTQEPSLTVSPGGTVTLTCRSSTGAVTTSNYANWVQQKPGQAPRGLIGGTNKRAPWTPARFSGSLLGGKAALTITGAQAEDEADYYCALWYSNLWVFGGGTKLTVLGGGGSGGGGEVQLVQSGAELKKPGASVKVSCKASGYTFTDYYMKWVRQAPGQGLEWIGDIIPSNGATFYNQKFKGRVTITVDKSTSTAYMELSSLRSEDTAVYYCARSHLLRASWFAYWGQGTLVTVSSGGCGGGEVAALEKEVAALEKEVAALEKEVAALEK | 38.4 | 29.4 |
